In patent WO2017204277A1:

Biological target: mature h(m)TGF-beta3 (mature form of human (mouse) TGF-beta3) (human (mouse); the filing says the mature forms are identical)
Experiment: cell-based or functional assay

suppression of TGF-beta3 physiological activity (Smad signal), SEAP activity of HEK-Blue TGFb cells, OD620nm: 100%
Substance: GC1008-hIgG1 (antibody)
